The target in one series is Luteinizing hormone (LH) (UniProt P01215;P01229 25-116;21-141). The series can be described thus: electrochemical strand displacement (SWV); 10 pM-10 uM LH; detection limit 10 pM (not a Kd); displaces signal probe; 10 mM phosphate buffer, 1 M NaCl, pH 7.4, room temperature; 30 nM aptamer/signal duplex (prepared in 20 mM Tris, 50 mM MgCl2, pH 8.0, diluted 60 uL into 1940 uL PBS). The settings on record: protein: commercial; copies: 1;1; assayed prehybridized 1:1 with signal probe S3 (3'-MB), complementary to aptamer nt 1-15; S3 is displaced by target; G-quadruplex predicted.

The target of a further series is Nucleolin (NCL) (UniProt P19338 2-710). The series can be described thus: electrochemical strand displacement (SWV); 100 nM NCL; signal gain 357.19%; 10 mM phosphate buffer, 1 M NaCl, pH 7.4, room temperature; 30 nM aptamer/signal duplex (prepared in 20 mM Tris, 50 mM MgCl2, pH 8.0, diluted 60 uL into 1940 uL PBS). The note with it: protein: commercial; assayed prehybridized with NCL-SP S10 (3'-MB), displaced by target; printed S10 only partly complementary.

Series [1] deals with Neutrophil gelatinase-associated lipocalin (NGAL) (UniProt P80188 21-198). The series can be described thus: electrochemical strand displacement (SWV); 100 nM NGAL; signal gain 200.85%; 10 mM phosphate buffer, 1 M NaCl, pH 7.4, room temperature; 30 nM aptamer/signal duplex (prepared in 20 mM Tris, 50 mM MgCl2, pH 8.0, diluted 60 uL into 1940 uL PBS). The settings on record: protein: commercial; assayed prehybridized with NGAL-SP S7 (3'-MB), displaced by target; printed S7 only partly complementary.
Neutrophil gelatinase-associated lipocalin (NGAL), sequence (P80188 21-198): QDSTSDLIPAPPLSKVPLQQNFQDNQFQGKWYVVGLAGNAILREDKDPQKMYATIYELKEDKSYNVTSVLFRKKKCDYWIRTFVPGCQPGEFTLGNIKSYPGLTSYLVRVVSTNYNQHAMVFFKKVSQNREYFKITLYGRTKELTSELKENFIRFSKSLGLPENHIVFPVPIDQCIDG

Nucleolin (NCL), sequence (P19338 2-710): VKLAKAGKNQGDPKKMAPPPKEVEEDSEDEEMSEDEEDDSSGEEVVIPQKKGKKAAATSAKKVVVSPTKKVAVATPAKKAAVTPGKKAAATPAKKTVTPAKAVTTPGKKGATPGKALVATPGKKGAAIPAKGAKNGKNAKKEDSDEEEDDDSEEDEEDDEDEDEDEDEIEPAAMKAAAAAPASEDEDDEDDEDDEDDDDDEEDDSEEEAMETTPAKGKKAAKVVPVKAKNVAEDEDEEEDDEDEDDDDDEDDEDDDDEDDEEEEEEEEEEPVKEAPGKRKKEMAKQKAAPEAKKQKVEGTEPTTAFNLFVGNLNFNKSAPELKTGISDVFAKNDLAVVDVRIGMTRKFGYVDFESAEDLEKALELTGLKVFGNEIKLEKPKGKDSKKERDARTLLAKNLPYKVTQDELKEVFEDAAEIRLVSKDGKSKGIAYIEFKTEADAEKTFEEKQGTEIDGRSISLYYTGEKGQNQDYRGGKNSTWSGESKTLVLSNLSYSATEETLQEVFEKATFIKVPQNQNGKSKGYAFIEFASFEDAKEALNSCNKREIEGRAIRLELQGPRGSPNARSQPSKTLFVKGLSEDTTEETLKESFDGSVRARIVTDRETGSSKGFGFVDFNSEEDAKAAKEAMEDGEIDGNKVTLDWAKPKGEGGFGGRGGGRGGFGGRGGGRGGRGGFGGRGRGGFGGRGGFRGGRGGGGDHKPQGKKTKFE
Luteinizing hormone (LH), sequence (P01215 25-116, chain 1 of 2): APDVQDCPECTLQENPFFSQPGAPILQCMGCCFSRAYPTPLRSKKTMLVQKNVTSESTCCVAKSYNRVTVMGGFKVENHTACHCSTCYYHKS
Luteinizing hormone (LH), sequence (P01229 21-141, chain 2 of 2): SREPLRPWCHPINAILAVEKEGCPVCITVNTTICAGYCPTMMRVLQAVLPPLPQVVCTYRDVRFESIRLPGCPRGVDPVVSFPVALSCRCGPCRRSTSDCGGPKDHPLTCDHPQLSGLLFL

B1: LH aptamer (structured_DNA)
DNA: TATGGTATGCTGTGTGGTATGGGGTGGCGTGCTCT
Consider B1, for which, in the series with Luteinizing hormone (LH), the binding result was “binds”.

B2: Nucleolin aptamer (ssDNA)
DNA: GGTGGTGGTGGTTGTGGTGGTGGTGGTTTTTT
On to B2, for which the binding result in the series with Nucleolin (NCL) is “binds”.

B3: NGAL aptamer (ssDNA)
DNA: AGCAGCACAGAGGTCAGATGGCGCTGGATAGCAAGATCACGTTATCATCGTAAACCCTATGCGTGCTACCGTGAA
For B3, the binding result in series [1] is recorded as “binds”.

These data come from publication PMC8867190, “Ultrasensitive DNA‐Biomacromolecule Sensor for the Detection Application of Clinical Cancer Samples”.
